Results as given in patent US20100260765A1 (AstraZeneca / MedImmune, published 2010).

Key:
[1] = molecular target: T1, human KDR (VEGFR2) on cells (human, UniProt P35968 20-1356); test: cell-based or functional assay
[2] = molecular target: T1, human KDR (VEGFR2) on cells; test: cell-based or functional assay; remark: listed apart in the source
b-KDRIg4-7-myc-his = molecular target: T2, b-KDRIg4-7-myc-his (UniProt P35968 328-764, prefix 'b-' not explained; captured on neutravidin-coated plates (presumably biotinylated, site not stated)); test: ELISA, b-KDRIg4-7-myc-his 1 ug/mL on neutravidin, hybridoma supernatant 1:5
T2 construct: domain: Ig4-7; The text calls it 'a KDR antibody containing the Ig4-7 domain'; it is read as the KDR fragment; Purified on a nickel column; also called Ig4-7 domain of KDR; soluble KDR Ig4-7; not shown: myc-his tag of the pSecTag vector
T2 sequence (P35968 328-764): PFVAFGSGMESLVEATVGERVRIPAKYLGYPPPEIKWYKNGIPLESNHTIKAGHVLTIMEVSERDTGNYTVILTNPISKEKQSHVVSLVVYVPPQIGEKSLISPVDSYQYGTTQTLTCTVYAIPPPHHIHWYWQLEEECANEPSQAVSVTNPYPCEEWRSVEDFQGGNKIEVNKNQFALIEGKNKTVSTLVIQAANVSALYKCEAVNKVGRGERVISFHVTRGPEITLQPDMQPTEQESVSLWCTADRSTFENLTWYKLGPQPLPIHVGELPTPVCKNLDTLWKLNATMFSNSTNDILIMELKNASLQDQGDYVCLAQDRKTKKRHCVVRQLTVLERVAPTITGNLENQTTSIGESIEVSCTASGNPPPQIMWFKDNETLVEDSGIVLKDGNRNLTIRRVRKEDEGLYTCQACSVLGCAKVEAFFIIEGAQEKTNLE
Method: To screen by binding to the Ig4-7 domain of KDR, plates were first coated with neutravadin (Pierce) at 4 μg/mL and incubated overnight at 4° C. The plates were then blocked and subsequently incubated with b-KDRIg4-7-myc-his at 1 μg/mL for one hour at room temperature. Candidate hybridoma supernatants (at 1:5 dilution) were transferred to the plates and incubated for one hour at room temperature. The plates were then washed and incubated with goat anti-human IgG Fc POD (at 1:4000 dilution) for one hour at room temperature.

[3] = molecular target: T1, human KDR (VEGFR2) on cells; test: FACS on HUVEC, hybridoma supernatant 1:50
Method: HUVECs were seeded at 15,000 cells/well and incubated with 100 μL of sample supernatant (at 1:50 dilution) for one hour at 4° C. The positive control was goat anti-KDR antibody (R&D Systems, Inc.), and negative controls included irrelevant hybridoma supernatants at the same dilution. The cells were then washed and incubated with Cy5-conjugated goat anti-human antibody at 5 μg/mL and 7-Amino-Actinomycin D (7AAD) at 5 μg/mL for 15 minutes at 4° C. Bound KDR was detected using FACS analysis.

[4] = molecular target: T3, soluble KDR (VEGF Receptor 2 D1-7, Cat. #676490, Calbiochem) (human, UniProt P35968 20-764); test: ELISA, plate-coated soluble KDR 250 ng/mL, hybridoma supernatant 1:5
T3 construct: extracellular domain; Bought reagent; also called soluble human KDR; immobilized soluble KDR
T3 sequence (P35968 20-764): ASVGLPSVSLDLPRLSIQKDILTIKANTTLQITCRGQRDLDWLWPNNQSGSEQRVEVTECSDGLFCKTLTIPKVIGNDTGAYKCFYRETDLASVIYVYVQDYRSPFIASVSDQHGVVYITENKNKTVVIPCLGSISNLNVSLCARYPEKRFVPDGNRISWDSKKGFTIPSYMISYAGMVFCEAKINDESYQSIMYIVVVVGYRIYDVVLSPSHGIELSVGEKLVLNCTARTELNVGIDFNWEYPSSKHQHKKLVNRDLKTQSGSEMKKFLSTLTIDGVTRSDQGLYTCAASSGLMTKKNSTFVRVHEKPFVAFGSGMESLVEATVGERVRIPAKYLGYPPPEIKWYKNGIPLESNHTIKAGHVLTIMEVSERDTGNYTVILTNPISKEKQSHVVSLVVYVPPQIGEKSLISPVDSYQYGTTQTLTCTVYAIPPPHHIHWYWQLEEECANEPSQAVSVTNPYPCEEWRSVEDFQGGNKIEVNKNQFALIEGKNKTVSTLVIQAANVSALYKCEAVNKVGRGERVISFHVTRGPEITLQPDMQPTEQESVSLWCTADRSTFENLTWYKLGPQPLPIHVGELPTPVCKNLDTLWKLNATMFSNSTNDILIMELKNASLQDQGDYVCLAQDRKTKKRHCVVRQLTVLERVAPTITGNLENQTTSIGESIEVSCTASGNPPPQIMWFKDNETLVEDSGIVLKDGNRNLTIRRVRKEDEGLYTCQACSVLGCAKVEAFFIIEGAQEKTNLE
Method: To screen by binding to immobilized soluble KDR, plates were coated with KDR (Calbiochem) at 250 ng/mL overnight at 4° C. After blocking and washing the coated plates, the candidate hybridoma supernatants (at 1:5 dilution) were transferred to the plates and incubated for one hour at room temperature. The plates were then washed and incubated with secondary antibody (at 1:4000 dilution) for one hour at room temperature.

[5] = molecular target: T1, human KDR (VEGFR2) on cells; test: cell-based or functional assay; remark: listed apart in the source
[6] = molecular target: T4, mouse KDR (Flk-1)/Fc (Cat. #443-KD/CF, R&D Systems) (mouse, UniProt P35918 20-762); test: ELISA, plate-coated Flk-1/Fc 500 ng/mL, hybridoma supernatant 1:5
T4 construct: Bought reagent; also called mouse VEGFR2; KDR mouse ortholog; Fc part of the bought chimera not given
T4 sequence (P35918 20-762): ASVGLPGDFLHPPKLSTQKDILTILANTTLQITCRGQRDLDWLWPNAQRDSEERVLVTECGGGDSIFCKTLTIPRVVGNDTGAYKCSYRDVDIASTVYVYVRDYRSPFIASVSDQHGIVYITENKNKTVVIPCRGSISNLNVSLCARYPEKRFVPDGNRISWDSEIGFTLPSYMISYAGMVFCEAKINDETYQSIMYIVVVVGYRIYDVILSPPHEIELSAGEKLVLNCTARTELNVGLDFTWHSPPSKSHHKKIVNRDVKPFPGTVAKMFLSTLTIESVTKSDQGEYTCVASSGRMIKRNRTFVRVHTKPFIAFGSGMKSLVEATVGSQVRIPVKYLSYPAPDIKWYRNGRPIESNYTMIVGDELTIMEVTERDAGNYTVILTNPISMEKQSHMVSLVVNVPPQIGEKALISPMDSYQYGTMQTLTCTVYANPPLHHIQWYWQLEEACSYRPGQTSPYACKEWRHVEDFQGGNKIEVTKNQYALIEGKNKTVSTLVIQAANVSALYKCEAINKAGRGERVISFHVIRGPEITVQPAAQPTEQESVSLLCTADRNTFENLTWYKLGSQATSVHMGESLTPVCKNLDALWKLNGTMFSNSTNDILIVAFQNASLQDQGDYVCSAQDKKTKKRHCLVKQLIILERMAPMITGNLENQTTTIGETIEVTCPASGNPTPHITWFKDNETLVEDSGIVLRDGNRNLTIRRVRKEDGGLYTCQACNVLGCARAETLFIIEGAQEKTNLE
Method: The cross-reactivity of antibodies in the hybridoma supernatant was tested against KDR mouse ortholog (mouse VEGFR2, or Flk-1) and human VEGFR1 (Flt-1). Cross-reactivity was measured using an ELISA based assay.
After washing and blocking the plates, the antibody-containing supernatants were added (at 1:5 dilution) into the coated wells and incubated for one hour at room temperature. The plates were then incubated with mouse anti-human IgG 2, 3 and 4 and subsequently with goat anti-mouse IgG Fc POD, to detect and measure bound antibodies.

T1 sequence (P35968 20-1356): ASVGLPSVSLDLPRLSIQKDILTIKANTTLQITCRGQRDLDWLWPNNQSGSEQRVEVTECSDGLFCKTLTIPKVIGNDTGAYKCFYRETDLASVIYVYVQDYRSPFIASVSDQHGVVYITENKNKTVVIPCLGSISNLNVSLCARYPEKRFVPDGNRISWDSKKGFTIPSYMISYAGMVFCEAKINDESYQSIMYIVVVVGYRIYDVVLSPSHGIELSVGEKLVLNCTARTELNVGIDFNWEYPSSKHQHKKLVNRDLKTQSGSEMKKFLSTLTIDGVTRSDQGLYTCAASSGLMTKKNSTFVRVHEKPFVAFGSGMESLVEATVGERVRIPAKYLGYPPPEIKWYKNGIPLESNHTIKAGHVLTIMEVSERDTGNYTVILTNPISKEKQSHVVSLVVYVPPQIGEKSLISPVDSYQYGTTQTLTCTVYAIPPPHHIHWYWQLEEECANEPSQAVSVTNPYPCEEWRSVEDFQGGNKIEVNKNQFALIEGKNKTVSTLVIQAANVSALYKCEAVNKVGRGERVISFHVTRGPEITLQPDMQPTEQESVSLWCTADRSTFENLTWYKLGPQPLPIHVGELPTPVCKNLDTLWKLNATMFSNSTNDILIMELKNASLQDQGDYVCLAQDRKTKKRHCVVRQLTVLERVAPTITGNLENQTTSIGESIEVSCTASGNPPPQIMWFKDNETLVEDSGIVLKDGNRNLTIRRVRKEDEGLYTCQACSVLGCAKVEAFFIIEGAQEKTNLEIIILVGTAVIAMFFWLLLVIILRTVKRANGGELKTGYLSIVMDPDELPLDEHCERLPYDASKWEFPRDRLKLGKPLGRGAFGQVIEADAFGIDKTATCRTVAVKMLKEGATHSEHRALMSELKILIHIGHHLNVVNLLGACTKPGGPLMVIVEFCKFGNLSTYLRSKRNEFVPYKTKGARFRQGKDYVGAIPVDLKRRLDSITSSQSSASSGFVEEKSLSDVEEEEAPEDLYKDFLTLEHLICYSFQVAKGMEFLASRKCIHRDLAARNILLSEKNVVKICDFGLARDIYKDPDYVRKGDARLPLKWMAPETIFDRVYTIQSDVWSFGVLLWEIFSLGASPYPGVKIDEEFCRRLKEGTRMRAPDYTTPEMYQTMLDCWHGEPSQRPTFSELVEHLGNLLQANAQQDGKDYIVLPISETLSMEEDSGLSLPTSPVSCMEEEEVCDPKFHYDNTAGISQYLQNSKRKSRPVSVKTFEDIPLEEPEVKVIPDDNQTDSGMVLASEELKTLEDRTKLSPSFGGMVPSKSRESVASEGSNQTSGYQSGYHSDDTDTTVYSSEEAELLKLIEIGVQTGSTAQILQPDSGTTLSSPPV

Binder | % Inhibition of VEGF-E-mediated pTyr Activity [1] [%] | HUVEC survival (n = 1) 1:10 dilution of supernatant (RLU) [2] [RLU] | HUVEC survival (n = 2) 1:20 dilution of supernatant (RLU) [2] [RLU] | b-KDRIg4-7 OD(450 nm) (b-KDRIg4-7-myc-his) [OD450] | FACS Geometric Mean [3] | KDR OD(450 nm) [4] [OD450] | % Inhibition of VEGF165-mediated pTyr Activity, Average [5] [%] | % Inhibition of VEGF165-mediated pTyr Activity, n = 1 [5] [%] | % Inhibition of VEGF165-mediated pTyr Activity, n = 2 [5] [%] | % Inhibition of VEGF165-mediated pTyr Activity, n = 3 [5] [%] | OD (450 nm) [6] [OD450]
anti-KDR monoclonal antibody 21H6 (antibody, V domains shown, Fully human mAb from XenoMouse; hybridoma supernatant) VH: QVQLVESGGGLVKPGGSLRLSCAASGFTFSDYYMSWIRQAPGKGLEWVSYISNSGITIYYADSVKGRFTISRDNAKNSLYLQMNSLRAGDTAVYYCAREEWYSSRWYRNFDYWGQGTLVTVSS VL: DIQMTQFSSSLSASVGDRVTITCRASQSISRYLNWYQQKPGKAPKLLIYAASSLQSGVPSRFNGSGSGTDFTLTISSLQPEDFATYYCQQSYSAPLTFGGGTKVEIK | 70 | 10200 | 247 | 0.935 | 18 | 0.62 | 72 | 85 | 65 | 68 | –
anti-KDR monoclonal antibody 21A1 (antibody, V domains shown, Fully human mAb from XenoMouse (IgG2 or IgG4 strain); hybridoma supernatant) VH: QVQLVESGGGLVKPGGSLRLSCAASGFTFSDYYMSWIRQAPGKGLEWVSYISNSGITIYYADSVKGRFTISRDNAKNSLYLQMNSLRAGDTAVYYCAREEWYSSRWYRNFDYWGQGTLVTVSS VL: DIQMTQFSSSLSASVGDRVTITCRASQSISRYLNWYQQKPGKAPKLLIYAASSLQSGVPSRFNGSGSGTDFTLTISSLQPEDFATYYCQQSYSAPLTFGGGTKVEIK | 67 | 8870 | 2670 | 1.27 | 14 | 0.967 | 72 | 71 | 77 | 68 | –
anti-KDR monoclonal antibody 30F6 (antibody, V domains shown, Fully human mAb from XenoMouse (IgG2 or IgG4 strain); hybridoma supernatant) VH: QVQLVESGGGVVQPGRSLRLSCAASGFTFSTYGMHWVRQAPGKGLEWVAVIWYDGSNKYYADSVKGRFTISRDNSKNTLYLQMNSLRAEDTAVYYCACSYWNDDYYYGMDVWGQGTTVTVSS VL: DIQMTQSPSSLSASVGDRVIITCRASQNISSYLIWYQQKPGKAPNLLIHTTSSLQRGVPSRFSGSGSGTDFTLTISSLQPEDFATYYCQQSYSAPLTFGGGTKVEIK | 56 | 14800 | 1350 | – | 21 | 0.454 | 70 | 98 | 60 | 52 | 0.067
anti-KDR monoclonal antibody 1G6 (antibody, V domains shown, Fully human mAb from XenoMouse (IgG2 or IgG4 strain); tested here as hybridoma supernatant) VH: EVQLLESGGGLVQPGGSLRLSCAASGFTFSSYAMSWVRQAPGKGLEWVSAISGGGGNTYYADSVKGRFTISRDNSKNTLYLQMNSLRAEDTAVYYCSKVATDYWGQGTLVTVSS VL: QPVLTQSSSASASLGSSVKLTCTLSSGHSSYIIAWHQQQPGKAPRYLMKLEGSGSYNKGSGVPDRFSGSSSGADRYLTISNLQFEDEADYYCETWDSYTVVFGGGTKLTVL | 24 | 47800 | 10200 | – | 32 | 6 | 71 | 89 | 67 | 58 | 0.055
